The assay concerns the target recombinant human PCSK9 with 6x His tag (proprotein convertase subtilisin/kexin type-9) (human, UniProt Q8NBP7 31-692). The assay is described as follows: BLI. (In general: In BLI a coated tip is dipped into the sample, and binding shifts an interference pattern.)

B1: recombinant human CAP1 (adenylyl cyclase-associated protein 1) (natural protein)
chain: MADMQNLVERLERAVGRLEAVSHTSDMHRGYADSPSKAGAAPYVQAFDSLLAGPVAEYLKISKEIGGDVQKHAEMVHTGLKLERALLVTASQCQQPAENKLSDLLAPISEQIKEVITFREKNRGSKLFNHLSAVSESIQALGWVAMAPKPGPYVKEMNDAAMFYTNRVLKEYKDVDKKHVDWVKAYLSIWTELQAYIKEFHTTGLAWSKTGPVAKELSGLPSGPSAGSCPPPPPPCPPPPPVSTISCSYESASRSSLFAQINQGESITHALKHVSDDMKTHKNPALKAQSGPVRSGPKPFSAPKPQTSPSPKRATKKEPAVLELEGKKWRVENQENVSNLVIEDTELKQVAYIYKCVNTTLQIKGKINSITVDNCKKLGLVFDDVVGIVEIINSKDVKVQVMGKVPTISINKTDGCHAYLSKNSLDCEIVSAKSSEMNVLIPTEGGDFNEFPVPEQFKTLWNGQKLVTTVTEIAG
In general, koff refers to a measure of how fast the partners let go of each other. For the molecule B1, the koff was determined as 0.00132 s⁻¹.

Values taken from article PMC10981688 (2024).
